In publication PMC7515722, “Participation of RecJ in the base excision repair pathway of Deinococcus radiodurans”:

T1: drRecJ WT (Deinococcus radiodurans, UniProt D0EM60 1-705)
T1 sequence: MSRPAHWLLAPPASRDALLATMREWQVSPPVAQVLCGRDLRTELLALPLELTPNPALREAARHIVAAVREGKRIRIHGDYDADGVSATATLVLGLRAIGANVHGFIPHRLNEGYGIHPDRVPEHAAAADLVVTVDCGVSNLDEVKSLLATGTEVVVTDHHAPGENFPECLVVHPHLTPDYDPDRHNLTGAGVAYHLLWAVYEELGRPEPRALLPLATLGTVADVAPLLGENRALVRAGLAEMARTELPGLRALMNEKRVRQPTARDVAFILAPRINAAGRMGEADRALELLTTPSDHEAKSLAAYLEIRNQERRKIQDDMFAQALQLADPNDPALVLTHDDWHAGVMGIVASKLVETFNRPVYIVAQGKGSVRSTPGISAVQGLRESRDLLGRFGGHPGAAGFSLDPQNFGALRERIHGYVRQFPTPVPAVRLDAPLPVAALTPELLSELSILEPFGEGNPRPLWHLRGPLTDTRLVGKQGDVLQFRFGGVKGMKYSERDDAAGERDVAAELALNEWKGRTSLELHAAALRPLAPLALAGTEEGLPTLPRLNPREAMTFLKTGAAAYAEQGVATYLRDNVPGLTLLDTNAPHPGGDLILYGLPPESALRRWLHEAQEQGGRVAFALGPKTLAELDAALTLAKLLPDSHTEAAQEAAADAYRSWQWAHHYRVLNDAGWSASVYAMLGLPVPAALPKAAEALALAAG


Each binder was assayed against T1, drRecJ WT (assay: EMSA; no Mn2+ added; EMSA: 10 nM 3'-6-FAM ssDNA, 50 mM Tris-HCl pH 7.5, 150 mM KCl, 0.1 mg/ml BSA, 1 mM DTT, 5% glycerol, 20 min at 30 C; 8% native PAGE in TBE; Hill fit). Conditions: protein: recombinant; label: 3'-6-FAM.

AAAAAAAAAAAAAAAAAAAA (ssDNA, 5'-P-dSpacer (tetrahydrofuran abasic, 5'-dRP mimic) added before A1) [KY11, 5'-P-dSpacer-(dA)20] and AAAAAAAAAAAAAAAAAAAA (ssDNA, 5'-monophosphate) [KY10, 5'-P-(dA)20] are within error of each other in Kd: 28.4 ± 3.1 nM for the first, 33.9 ± 2.83 nM for the second.

Binder AAAAAAAAAAAAAAAAAAAA (ssDNA) [KY08, (dA)20] has a Kd of 54.9 ± 5.18 nM.
